Test results published in PMC3942423 (Nature chemical biology, 2009).

Columns and labels:
[1] = substrate: O=[N+]([O-])c1ccc(O[C@H]2O[C@H](CO)[C@@H](O)[C@H](O)[C@@H]2O)cc1; test: 4NP-Man hydrolysis kinetics; assay type: biochemical, Bacteroides thetaiotaomicron; conditions: other: substrate 4NP-Man
[2] = substrate: OC[C@H]1O[C@H](O[C@H]2[C@@H](O)[C@H](O)[C@@H](CO)O[C@@H]2O)[C@@H](O)[C@@H](O)[C@@H]1O; test: mannobiose hydrolysis kinetics; assay type: biochemical, Bacteroides thetaiotaomicron; conditions: other: most active mannobiose substrate

B1: Bt3130 (Bacteroides thetaiotaomicron VPI-5482) (protein)
chain: GEITKYVNPFIGTGAIDGGLSGNNYPGATSPFGMIQLSPDTSEAPNWGDASGYDYNRNTIFGFSHTRLSGTGASDLIDITLMPTSSGRTSSAFTHDEEKARPGYYQVMLKDENINAELTTTQRNGIHRYQYPAGKDAEIILDMDHSADKGSWGRRIINSQIRILNDHAVEGYRIITGWAKLRKIYFYMEFSSPILTSTLRDGGRVHENTAVINGTNLHGCFRFGQLNGKPLTCKVALSSVSMENARQNMEQEAPHWDFDRYVAAADADWEKQLGKIEVKGTEVQKEIFYTALYHTMIQPNTMSDVNGEYMAADYTTRKVANNETHYTTFSLWDTFRASHPLYTLLEPERVTDFVKSMIRQYEYYGYLPIWQLWGQDNYCMIGNHSIPVITDAILKGIPGIDMEKAYEAVYNSSVTSHPNSPFEVWEKYGFMPENIQTQSVSITLEQAFDDWCVAQLAAKLNKDADYQRFHKRSEYYRNLFHPKTKFFQSKNDKGEWIEPFDPYQYGGNGGHPFTEGNAWQYFWYVPHNIQALMELTGGTKAFEQKLDTFFTSTYKSEQMNHNASGFVGQYAHGNEPSHHVAYLYNFAGQPWKTQKYVSHILNTLYNNTSSGYAGNDDCGQMSAWYVFSAMGFYPVNPADGRYIIGSPLLDECTLKLAGNKEFRIRTIRKSPEDIYIQSVTLNGKKHKDFFITHQDIMNGGTMVFKMGKKPSGWGK
- Km ([1]; enzyme Bt3130, pH 7.0): 510 ± 97 µM
- kcat ([1]; enzyme Bt3130, pH 7.0): 56.7 ± 3.17 s⁻¹
- kcat/Km ([1]; enzyme Bt3130, pH 7.0): 112000 M⁻¹ s⁻¹

B2: Bt3963 (Bacteroides thetaiotaomicron VPI-5482) (protein)
chain: QQPVDYVNPIIGTNGMGHTFPGACTPFGWVQLSPDTDTIPHNVNGAYQKNAYEYCAGYQYRDKTIVGFSHTHLSGTGHSDLGDILLMPAVGDVKLNPGRADHPEEGYRSRFDHATEKATPGYYEVMLDDYGIKAQLTATQRTGVHKYTFPKGKDGHLILDLVHGIYNYDGKVLWANLRVENDTLLTGYRITNGWARTNYTYFAISLSQPIKDYGYKDKEKVLYNGFWRRFKLEKNFPEITGRKIVAYFNFETAKDPELVVKVALSAVSTEGAVKNLRAEASGKSFEQLAEAARTDWNNELDHFEIEGTPDQKAMFYTSLYHTMINPSVYMDVDGSYRGLDHNIHQAKGFTNYTIFSLWDTYRAEHPFLNLVKPERNADMVESMIKHEQQSVHGMLPIWSLMGNENWCMSGYHAVSVLADAITKGVFSNVDEALSAMVSTSTVPYYEGVADYMKLGYIPLDKSGTAASSTLEYAYDDWTIYQTALKAGNKEIADTYRKRALNYRNIYDTSIGFARPRYSDGTFKKEFDVLQTYGEGFIEGNSWNFSFHVPHDVFGMIDLMGGEKTFVQKLDELFSMHLPEKYYEHNEDITEECLVGGYVHGNEPSHHVPYLYAWTSQPWKTQYWLREILNKMYKNDINGLGGNDDCGQMSAWYLFSVMGFYPVCPGTDQYVLGAPYLPYLKLTLPNGKTLEIKAPGVSDKKRYVQSLKLNGESYDKMYITHEDILKGGVLEFKMSASPNKRRGVSVQDKPYSLTNGIN
- Km ([1]; enzyme Bt3963, pH 7.0): 790 ± 80 µM
- kcat ([1]; enzyme Bt3963, pH 7.0): 0.00045 ± 1.67e-05 s⁻¹
- kcat/Km ([1]; enzyme Bt3963, pH 7.0): 0.567 M⁻¹ s⁻¹

B3: Bt4092 (Bacteroides thetaiotaomicron VPI-5482) (protein)
chain: QLKDLVQYVNTLQGTDSNFGLSYGNTYPTTGMPYGMHMWSAQTGKNGDGFKYMYAVDKIRAFSQSHQCSPWVSDYAVYSFMPMVGELVVNQDARATKFSHDNEIAKPHYYKVTFDNGITTEMAPTTRGVHLRFSYPTTGDAYLVLDGYTDMSEIKIDPAKRQISGWVNNQRFVNDSKSFRNYFVVQFDKPFEDYGVWENQKDEVFPQKLDGAGKGYGAFIKFKKGSKVQAKAASSYISAEQALITLNKELGKDKNLEVTKARGQKTWNEVLNRIVVEGCTDEQMKTFYSCLFRANLFSRKFYERKENGEPYYYSPYNGKIYDGYMYTDNGFWDTFRSQFPLTNILHPTMQGRYMNALLAAQEQCGWLPSWSSPGETGGMLGNHSISLLADAWAKGIRDFDPEKALKAYAHEAMNKGPWGGANGRGFWKEYFQLGYVPYPESMGSSAQTMEYAYDDFCGYQLAKMVGNKHYQEVFARQMYNYKNVFDKSIGFMRGKGVDGKWQEPFDPLEWGGPFCEGNAWHYTWSVFHDVQGLIDLFGSDEKFTTKIDSVFTIPNIIKPGTYGGVIHEMKEMELANMGQYAHGNQPIQHMPYLYCYAGQPWKTQYWVRQIVERLYNSTEKGYPGDEDQGGMSSWYILSSLGIYAVCPGTDEYVIGSPLFKKATITMENGNKFVIEAPENSKENLYIQSATLNGRLLDKNYIHYDDIAEGGVLKFEMGSQPNKERCTSKYAAPFSLSKE
- Km ([2]; enzyme Bt4092, pH 7.0): 2000 ± 450 µM
- kcat ([2]; enzyme Bt4092, pH 7.0): 1.83 s⁻¹
- kcat/Km ([2]; enzyme Bt4092, pH 7.0): 900 M⁻¹ s⁻¹

B4: Bt1032 (Bacteroides thetaiotaomicron VPI-5482) (protein)
chain: GEGKAPPMDKEKSLLIDYVDPFIGTTNFGTTNPGAVCPNGMMSVVPFNVMGSADNTYDKDARWWSTPYEHTNCFFTGYSHVNLSGVGCPELGSLLLMPTTGELNVDYKEYGSKYKDEQASPGYYSNYLTKYNIKTEVSATPRTGIARFTFPKGESHILLNLGEGLTNESGAMLRRVSDSEIEGMKLLGTFCYNPQAVFPIYFVMRVNKVPATTGYWKKQRPMTGVEAEWDRDQGKYKLYTRYGKEIAGDDVGAYFTFETEEGEQVEVQMGVSFVSIENARLNLDKEQSGKNFEQVLSDARAQWNDDLSRITVEGGTDAQKTVFYTALYHLLIHPNVLQDVNGEYPAMESDQILTTKGTRYTVFSLWDTYRNVHQLLTLVYPERQMEMVRTMLDMYREHGWFPKWELYGRETLTMEGDPSIPVIVDTWMKGLRDFDVDLAYEAMYKSATLPGAENLMRPDNDDYMSKGYVPLREQYDNSVSHALEYYIADFALSRFADALGKKKDAEMFYKRSLGYKHYYSKEFGTFRPILPDGTFYSPFNPRQGENFEPNPGFHEGNSWNYTFYVPHDVYGLAKLMGGKKPFVNKLQMVFDEGLYDPANEPDIAYAHLFSYFKGEEWRTQKETQRLLDKYFTTKPDGIPGNDDTGTMSAWAIFNMIGFYPDCPGLPEYALTTPVFNKVTIRLDPKWYKENELVIESNRTGSETLYINKVLLDGKKFNKYRITHDELVHGKRLIFDLK
- Km ([1]; enzyme Bt1032, pH 7.0): 1700 ± 360 µM
- kcat ([1]; enzyme Bt1032, pH 7.0): 0.006 ± 0.000633 s⁻¹
- kcat/Km ([1]; enzyme Bt1032, pH 7.0): 3.5 M⁻¹ s⁻¹

B5: Bt3991 (Bacteroides thetaiotaomicron VPI-5482) (protein)
chain: MKLKTLLIGCFGGFIMLNSCTESPSVKDYSAYVNPFIGTGGHGHTFPGAVVPHGMIQPSPDTRIDGWDACSGYYYDDNTINGFSHTHVSGTGCCDYGDVLLMPTVGKPQYLTTDPESQKLAYASAFSHENETAEPGYYSVFLDTYQVKAEITATKRGAIHRYTFPESTESGFIIDLDYSLQRQTNYEMEIEVISDTEICGHKKTTYWAFDQYINFYAKFSKPFAYTLITDSVTMDNGKRLPVCKAVLHFNTKKDEEVLVKVGVSAVDIAGARKNVESEIPEWDFDKVRKDARTAWNNYLSKIDITTSDKEDKTIFYTALYHTAISPNLFTDADGRYLGMDLEVHQGDTINPLYTVFSLWDTFRALHPLMTIIDPNLNNQFINSLIRKHQEGGIYPMWDLASNYTGTMIGYHAVPVIVDAYMKGYRNFDAHEAYKASLRAAEYDTTGIKCPDLVLPHLMPKAKYYKNAIGYIPCDRENESVAKALEYAYDDWCISIFAEAMNDFENKAKYERFAKAYEFYFDKSTRFMRGLDSNGEWRTPFNPRASTHRSDDYCEGTAWQWTWFVPHDVEGLVKLMGGEDAFVEKLDSLFTVDSSLDGETTSADISGLIGQYAHGNEPSHHVIHLYNYVNRPWRTQELVDSVYRSQYANNVDGLSGNEDCGQMSAWYILNSMGFYQVCPGKPVYSIGRPAFDKAVINLPGEKTFSIVAKNNSKSNKYIESVLLNGKPLDTPFFGHQDIVAGGVMEIRMTDHPTQWGVRQ
- kcat ([1]; enzyme Bt3991, pH 7.0): 0.0025 ± 0.00035 s⁻¹
- kcat/Km ([1]; enzyme Bt3991, pH 7.0): 0.917 M⁻¹ s⁻¹

B6: Bt3994 (Bacteroides thetaiotaomicron VPI-5482) (protein)
chain: EIDYTSYVNPFIGTDFTGNTYPGAQAPFGMVQLSPDNGLPGWDRISGYFYPDSTIAGFSHTHLSGTGAGDLYDISFMPVTLPYKEAEAPLGIYSKFSHDEESAYAGYYQVRLKDYHINVELTATERCGIQRYTFPKAEAAIFLNLKKAMNWDFTNDSHIEVVDSVTIQGYRYSDGWARDQRIYFRTRFSKPFDKVELDTTAIIKDKQHIGTAVIARFDFHTEEGEQILVNTAISGVSMEGAAKNLQAEVPENDFDKYLAETKANWNRQLGKIEVEGDNQDDKVNFYTALYHSMIAPTIYSDVDGAYYGPDKKVHQSDGWVNYSTFSLWDTYRAAHPLFTYTEPERVNDMVKSFIAFFEQNGRLPVWNFYGSETDMMIGYHAVPVIVDAYLKGIGNFDAEKALAACVATANLDNYRGIGLYKQLGYIPYNVTDHYNAENWSLSKTLEYAFDDYCIAEMANKMGKKEIADEFYKRSQNYKNVYNPATSFMQPRDDKGNFIKDFKADEYTPHICESNGWQYFWSVQHDIDGLIDLTGGKNRFAEKLDSMFTYHPAADEELPIFSTGMIGQYAHGNEPSHHVIYLFNAVGQQNLTQKYVAKVMNELYKNEPAGLCGNEDCGQMSAWYVFSAMGFYPVNPVSGKYEIGTPLFPEMKLHLANGKTFTVLAPKVSKENIYIQSIKVDGQPYNKTYLTHEQIMSGTTVEFEMGNTPLVEVEFEEQTQ
- Km ([1]; enzyme Bt3994, pH 7.0): 3700 ± 430 µM
- kcat ([1]; enzyme Bt3994, pH 7.0): 1.57 ± 0.0933 s⁻¹
- kcat/Km ([1]; enzyme Bt3994, pH 7.0): 433 M⁻¹ s⁻¹

B7: Bt3784 (Bacteroides thetaiotaomicron VPI-5482) (protein)
chain: MKTHFSFKHLLFIGGAVLYSMQISAVKNPVDYVSTLVGTQSKFELSTGNTYPATALPWGMNFWTPQTGKMGDGWAYTYNADKIRGFKQTHQPSPWMNDYGQFSIMPITGGLVFDQDQRASWFSHKAEVAKPYYYKVYLADHDVTTELVPTERAAMFRFTYPETKNAYVVIDAFDKGSYVKVIPEENKIIGYSTKNSGGVPENFKNYFVIQFDKPFTFTSGVKENNILPNETEVQGNHTGAIIGFATQKGEIVHARVASSFISYEQAELNLKELGKDSFDQLVTKGKDIWNREMSKVDVEDDNIDNLRTFYSCLYRSMLFPRSFYEIDAKGQVVHYSPYNGKVLPGYMFTDTGFWDTFRCLFPFLNLMYPSMNQKMQEGLVNAYLESGFLPEWASPGHRDCMVGNNSASVVADAYIKGLRGYDIETLWEALKHDANAHLRGTASGRLAYDAYNKLGYVPNNIGIGQNVARTLEYAYNDWTIYTLGKKLGKPASEIDIFKQRALNYKNVYHPKRKLMVGKDDKGVFNPKFDAVDWSGEFCEGNSWHWSFCVFHDPQGLIDLMGGKKEFNNMMDSVFVIPGKQGMESRGMIHEMREMQVMNMGQYAHGNQPIQHMVYLYNYSGEPWKAQHWVREIMDKLYTAGPDGYCGDEDNGQTSAWYVFSALGFYPVCPGTDQYILGTPLFKSAKLHLENGKTVTIKASNNNTDNRYVKDMKVNGKAFTRNYLTHDQLLKGANIQYQMSPTPNKQRGTTEKDIPYSLSFE
- kcat ([1]; enzyme Bt3784, pH 7.0): 0.08 ± 0.0065 s⁻¹
- kcat/Km ([1]; enzyme Bt3784, pH 7.0): 11.5 M⁻¹ s⁻¹
- kcat ([2]; enzyme Bt3784, pH 7.0): 0.45 ± 0.0917 s⁻¹
- kcat/Km ([2]; enzyme Bt3784, pH 7.0): 183 M⁻¹ s⁻¹
